This note sets out measurements from doi:10.1101/2020.12.29.424742.

Holding throughout (experiment): SEC
A general note: SEC sorts molecules by how far they enter the pores of the column.

The target in experiment [1] is DEBS3M5 KS0-AT R850K (Saccharopolyspora erythraea).
In experiment [2] the target is DEBS3M5 KS0-AT A539S (Saccharopolyspora erythraea).
The target in experiment [3] is DEBS3M5 KS0-AT R850S (Saccharopolyspora erythraea).
For experiment [4], the target named is PikAIIIM5 KS0-AT didomain (pikromycin synthase module 5) (Streptomyces venezuelae).
For experiment [5], the target named is DEBS3M5 KS0-AT R850E (Saccharopolyspora erythraea).
The target in experiment [6] is Pks7 KS0-AT didomain (Saccharopolyspora erythraea).
Experiment [7] has as its target DEBS3M5 KS0-AT A539E (Saccharopolyspora erythraea).
For experiment [8], the target named is DEBS3M5 KS0-AT R850A (Saccharopolyspora erythraea).
Experiment [9] concerns the target RAPS3M14 KS0-AT didomain (rapamycin synthase module 14) (Streptomyces hygroscopicus).
For experiment [10], the target named is DEBS3M5 KS0-AT R850F (Saccharopolyspora erythraea).
Experiment [11] addresses DEBS3M5 KS0-AT A539F (Saccharopolyspora erythraea).
Experiment [12] has as its target DEBS3M5 KS0-AT didomain, wild type (6-deoxyerythronolide B synthase module 5, KS knockout) (Saccharopolyspora erythraea).
Experiment [13] concerns the target DEBS3M5 KS0-AT A539D (Saccharopolyspora erythraea).

Where “and” joins values, the source holds several entries; their conditions need not be identical. Identical values can stand only once.

In the case of “DEBS3M5 KS0-AT R850K (domain or fragment)”, the stoichiometry N in experiment [1] was 4 and 2. As to “DEBS3M5 KS0-AT A539S (domain or fragment)”, in experiment [2], the stoichiometry N was 4 and 2. On to “DEBS3M5 KS0-AT R850S (domain or fragment)”, for which the stoichiometry N in [3] was 4 and 2.

Substance “PikAIIIM5 KS0-AT didomain (pikromycin synthase module 5) (domain or fragment)” registered a stoichiometry N in experiment [4] of 2. “DEBS3M5 KS0-AT R850E (domain or fragment)”: the stoichiometry N in experiment [5] was 4 and 2. As for “Pks7 KS0-AT didomain (domain or fragment)”, the stoichiometry N in [6] came to 2. Regarding “DEBS3M5 KS0-AT A539E (domain or fragment)”, the stoichiometry N in [7] is 4 and 2. Consider “DEBS3M5 KS0-AT R850A (domain or fragment)”, for which the stoichiometry N in experiment [8] is 4 and 2. As to “RAPS3M14 KS0-AT didomain (rapamycin synthase module 14) (domain or fragment)”, in experiment [9], the stoichiometry N was 4. In the case of “DEBS3M5 KS0-AT R850F (domain or fragment)”, in experiment [10], the stoichiometry N is 4 and 2.

On to “DEBS3M5 KS0-AT A539F (domain or fragment)”, for which the stoichiometry N in experiment [11] is 4 and 2.

Take “DEBS3M5 KS0-AT didomain, wild type (6-deoxyerythronolide B synthase module 5, KS knockout) (domain or fragment)”: in [12], the stoichiometry N is 4 and 2. With “DEBS3M5 KS0-AT A539D (domain or fragment)”, the stoichiometry N in experiment [13] was 4 and 2.

One may read the stoichiometry N as the number of molecules, sites or subunits per partner or assembly.
